pKd: −log10 of the molar value.
Key:
[1] = biological target: VEGFR2 recombinant protein, intracellular domain (aa 789 to end) (UniProt P35968); test: far-Western, overlay or dot blot; 0.5 to 8.0 ug VEGFR2 (aa 789 to end) on SDS-PAGE, transferred to PVDF; overlaid with V5-tagged L-FABP (1 ug/ml) for 12 hours; anti-V5 detection; Kd by non-linear regression (GraphPad Prism 5)
VEGFR2 (Homo sapiens) [2] = biological target: VEGFR2 (Homo sapiens) (UniProt P35968); test: ITC; settings: cited from earlier work
VEGFR2 (Homo sapiens) [3] = biological target: VEGFR2 (Homo sapiens) (UniProt P35968); test: SPR; settings: cited from earlier work

Substance	pKd [1]	pKd (VEGFR2 (Homo sapiens) [2])	pKd (VEGFR2 (Homo sapiens) [3])
Liver fatty acid-binding protein (L-FABP), V5-tagged recombinant protein expressed in Hus cells (from UniProt P07148 1-127) (natural protein)	9.60	–	–
VEGF-A (from UniProt P15692)	–	7.74	7.44

Source: PMC4951284
